Experimental data reported in paper PMC7614228, “Structural maturation of SYCP1-mediated meiotic chromosome synapsis by SYCE3” (Nature structural & molecular biology, 2023).
“And” between values parts separate entries of the source, which are not always exact repeats. Equal entries are not always repeated.

B1: SYCP1αNcore (amino-acids 206-362) (domain or fragment, human, UniProt Q15431 206-362, looked up)
chain: ETRQVYMDLNNNIEKMITAFEELRVQAENSRLEMHFKLKEDYEKIQHLEQEYKKEINDKEKQVSLLLIQITEKENKMKDLTFLLEESRDKVNQLEEKTKLQSENLKQSIEKQHHLTKELEDIKVSLQRSVSTQKALEEDLQIATKTICQLTEEKETQ
notes: SYCP1 αNcore (tetrameric core), amino-acids 206-362; Tetramer alone (SEC-MALS); two chains in the 2:1 complex with SYCE3; also called SYCP1 tetrameric core; source: E. coli BL21(DE3), purified alone or co-expressed and co-purified with SYCE3 (amylose, TEV, anion exchange, SEC); not shown: MBP, N-terminal, cleaved
B2: MBP-SYCP1αNcore (amino-acids 206-362) (domain or fragment, human, UniProt Q15431 206-362, looked up)
chain: ETRQVYMDLNNNIEKMITAFEELRVQAENSRLEMHFKLKEDYEKIQHLEQEYKKEINDKEKQVSLLLIQITEKENKMKDLTFLLEESRDKVNQLEEKTKLQSENLKQSIEKQHHLTKELEDIKVSLQRSVSTQKALEEDLQIATKTICQLTEEKETQ
notes: SYCP1 αNcore (tetrameric core), amino-acids 206-362; source: E. coli BL21(DE3), co-expressed with SYCE3 constructs; in lysate (amylose pull-down) or co-purified (amylose, anion exchange, SEC); not shown: MBP, N-terminal, kept
B3: SYCP1αN (amino-acids 101-362) (domain or fragment, human, UniProt Q15431 101-362, looked up)
chain: GLSRVYSKLYKEAEKIKKWKVSTEAELRQKESKLQENRKIIEAQRKAIQELQFGNEKVSLKLEEGIQENKDLIKENNATRHLCNLLKETCARSAEKTKKYEYEREETRQVYMDLNNNIEKMITAFEELRVQAENSRLEMHFKLKEDYEKIQHLEQEYKKEINDKEKQVSLLLIQITEKENKMKDLTFLLEESRDKVNQLEEKTKLQSENLKQSIEKQHHLTKELEDIKVSLQRSVSTQKALEEDLQIATKTICQLTEEKETQ
notes: SYCP1 α-helical N-terminal region, amino-acids 101-362; source: E. coli BL21(DE3), purified, alone or co-expressed and co-purified with SYCE3
B4: MBP-SYCP1αN (domain or fragment, human, UniProt Q15431 101-362, looked up)
chain: GLSRVYSKLYKEAEKIKKWKVSTEAELRQKESKLQENRKIIEAQRKAIQELQFGNEKVSLKLEEGIQENKDLIKENNATRHLCNLLKETCARSAEKTKKYEYEREETRQVYMDLNNNIEKMITAFEELRVQAENSRLEMHFKLKEDYEKIQHLEQEYKKEINDKEKQVSLLLIQITEKENKMKDLTFLLEESRDKVNQLEEKTKLQSENLKQSIEKQHHLTKELEDIKVSLQRSVSTQKALEEDLQIATKTICQLTEEKETQ
notes: SYCP1αN, amino-acids 101-362; source: E. coli BL21(DE3), co-purified with His-SYCE3

Assays:
[1] = target: the molecule itself; experiment: SEC-MALS; proteins in isolation, 5-20 mg/ml; Superdex 200 Increase, 20 mM Tris pH 8.0, 150 mM KCl, 2 mM DTT
[2] = target: the molecule itself; experiment: SEC-MALS; co-expressed and co-purified SYCP1-SYCE3 complexes, 5-20 mg/ml; 20 mM Tris pH 8.0, 150 mM KCl, 2 mM DTT (Superose 6 Increase for MBP-SYCP1αN-His-SYCE3)
[3] = target: B1; experiment: as above; conditions: both partners purified
[4] = target: B2; experiment: as above; conditions: both partners purified
MBP-SYCP1αN = target: B4; experiment: as above; conditions: both partners purified
[5] = target: B1; experiment: ITC; SYCE3 (400 μM) injected into SYCP1αNcore (70 μM) at 30°C; 25 mM Tris pH 8.0, 250 mM KCl, 2 mM DTT; apparent affinity; conditions: both partners purified
[6] = target: B3; experiment: SEC-MALS; co-expressed and co-purified SYCP1-SYCE3 complexes, 5-20 mg/ml; 20 mM Tris pH 8.0, 150 mM KCl, 2 mM DTT (Superose 6 Increase for MBP-SYCP1αN-His-SYCE3); conditions: both partners purified

Binder	stoichiometry N [2]	stoichiometry N [3]	also measured
B1	2 SYCP1 chains in the complex with SYCE3		stoichiometry N [1]: 4
B2	2 SYCP1 chains in the complex with SYCE3		
SYCE3 P53Q (natural protein, human, UniProt A1L190 1-88, looked up, SYCE3 with P53Q; source: E. coli BL21(DE3), co-purified with SYCP1αNcore; not shown: His or His-MBP, N-terminal, cleaved) MDDADPEERNYDNMLKMLSDLNKDLEKLLEEMEKISVQATWMAYDMVVMRTNQTLAESMRRLEDAFVNCKEEMEKNWQELLHETKQRL		2 SYCP1 chains per SYCE3 chain	
MBP-SYCE3 (natural protein, human, UniProt A1L190 1-88, looked up, SYCE3 without a stated truncation; source: E. coli BL21(DE3), co-purified with SYCP1αNcore constructs) MDDADPEERNYDNMLKMLSDLNKDLEKLLEEMEKISVQATWMAYDMVVMRTNPTLAESMRRLEDAFVNCKEEMEKNWQELLHETKQRL		2 SYCP1 chains per SYCE3 chain	stoichiometry N [4]: 2 SYCP1 chains per SYCE3 chain
His-SYCE3 (full-length, amino-acids 1-88) (natural protein, human, UniProt A1L190 1-88, looked up, SYCE3, full-length = amino-acids 1-88; source: E. coli BL21(DE3), co-expressed with MBP fusions; in lysate (amylose pull-down) or co-purified; not shown: His, N-terminal, kept) MDDADPEERNYDNMLKMLSDLNKDLEKLLEEMEKISVQATWMAYDMVVMRTNPTLAESMRRLEDAFVNCKEEMEKNWQELLHETKQRL			stoichiometry N (MBP-SYCP1αN): 2 SYCP1 chains per SYCE3 chain (2:1) and 4 SYCP1 chains with 2 SYCE3 chains (4:2); stoichiometry N [4]: 2 SYCP1 chains per SYCE3 chain
SYCE3 W41E Y44E (natural protein, human, UniProt A1L190 1-88, looked up, SYCE3 with W41E Y44E; also called SYCE3 WY; WY mutant; source: E. coli BL21(DE3), purified, alone or co-purified with SYCP1 constructs; not shown: His or His-MBP, N-terminal, cleaved) MDDADPEERNYDNMLKMLSDLNKDLEKLLEEMEKISVQATEMAEDMVVMRTNPTLAESMRRLEDAFVNCKEEMEKNWQELLHETKQRL		2 SYCP1 chains per SYCE3 chain	Kd [5]: 16 nM; apparent KD of one replicate [5]: 10 nM and 22 nM and 16 nM; stoichiometry N [6]: 2 SYCP1 chains per SYCE3 chain
SYCE3 α1-α2 (amino-acids 12-88) (domain or fragment, human, UniProt A1L190 12-88, looked up, SYCE3 α1-α2, amino-acids 12-88; source: E. coli BL21(DE3), co-purified with SYCP1αNcore; not shown: His or His-MBP, N-terminal, cleaved) DNMLKMLSDLNKDLEKLLEEMEKISVQATWMAYDMVVMRTNPTLAESMRRLEDAFVNCKEEMEKNWQELLHETKQRL		2 SYCP1 chains per SYCE3 chain	
SYCP1 αCore-ΔNtip (amino-acids 112-783) (domain or fragment, human, UniProt Q15431 112-783, looked up, SYCP1 α-helical core without the αNtip, amino-acids 112-783; also called SYCP1's full α-helical core, in which αNtips were deleted; source: E. coli BL21(DE3), purified, alone or in complex with SYCE3) EAEKIKKWKVSTEAELRQKESKLQENRKIIEAQRKAIQELQFGNEKVSLKLEEGIQENKDLIKENNATRHLCNLLKETCARSAEKTKKYEYEREETRQVYMDLNNNIEKMITAFEELRVQAENSRLEMHFKLKEDYEKIQHLEQEYKKEINDKEKQVSLLLIQITEKENKMKDLTFLLEESRDKVNQLEEKTKLQSENLKQSIEKQHHLTKELEDIKVSLQRSVSTQKALEEDLQIATKTICQLTEEKETQMEESNKARAAHSFVVTEFETTVCSLEELLRTEQQRLEKNEDQLKILTMELQKKSSELEEMTKLTNNKEVELEELKKVLGEKETLLYENKQFEKIAEELKGTEQELIGLLQAREKEVHDLEIQLTAITTSEQYYSKEVKDLKTELENEKLKNTELTSHCNKLSLENKELTQETSDMTLELKNQQEDINNNKKQEERMLKQIENLQETETQLRNELEYVREELKQKRDEVKCKLDKSEENCNNLRKQVENKNKYIEELQQENKALKKKGTAESKQLNVYEIKVNKLELELESAKQKFGEITDTYQKEIEDKKISEENLLEEVEKAKVIADEAVKLQKEIDKRCQHKIAEMVALMEKHKHQYDKIIEERDSELGLYKSKEQEQSSLRASLEIELSNLKAELLSVKKQLEIEREEKEKLKREAKE	2 SYCP1 chains in the complex with SYCE3		stoichiometry N [1]: 4
SYCP1αN ΔNtip (domain or fragment, human, UniProt Q15431 112-362, looked up, SYCP1αN (101-362) with the αNtip (101-111) deleted; also called SYCP1 ΔNtip; source: E. coli BL21(DE3), co-purified with SYCE3) EAEKIKKWKVSTEAELRQKESKLQENRKIIEAQRKAIQELQFGNEKVSLKLEEGIQENKDLIKENNATRHLCNLLKETCARSAEKTKKYEYEREETRQVYMDLNNNIEKMITAFEELRVQAENSRLEMHFKLKEDYEKIQHLEQEYKKEINDKEKQVSLLLIQITEKENKMKDLTFLLEESRDKVNQLEEKTKLQSENLKQSIEKQHHLTKELEDIKVSLQRSVSTQKALEEDLQIATKTICQLTEEKETQ	2 SYCP1 chains in the complex with SYCE3		
B3	2 SYCP1 chains in the 2:1 complex with SYCE3 and 4 SYCP1 chains in the 4:2 complex with SYCE3		
SYCP1αN V105E L109E (domain or fragment, human, UniProt Q15431 101-362, looked up, SYCP1αN, amino-acids 101-362, with V105E L109E; source: E. coli BL21(DE3), in complex with SYCE3) GLSREYSKEYKEAEKIKKWKVSTEAELRQKESKLQENRKIIEAQRKAIQELQFGNEKVSLKLEEGIQENKDLIKENNATRHLCNLLKETCARSAEKTKKYEYEREETRQVYMDLNNNIEKMITAFEELRVQAENSRLEMHFKLKEDYEKIQHLEQEYKKEINDKEKQVSLLLIQITEKENKMKDLTFLLEESRDKVNQLEEKTKLQSENLKQSIEKQHHLTKELEDIKVSLQRSVSTQKALEEDLQIATKTICQLTEEKETQ	2 SYCP1 chains in the complex with SYCE3		
B4	2 SYCP1 chains in the 2:1 complex with SYCE3 and 4 SYCP1 chains in the 4:2 complex with SYCE3		
